Assay results published in patent US20240043483A1, “TAU BIOSENSOR CELL LINES” (THE BOARD OF REGENTS OF THE UNIVERSITY OF TEXAS SYSTEM, priority 2020, published 2024).

What was measured:
[1] = biological target: tau RD(P301S)-mCerulean3 fusion (tau segment 246 to 378 with the P301S mutation, linker …, mCerulean3) (UniProt P10636); test: cell-based or functional assay
[2] = biological target: tau RD(P301S)-mClover3 fusion (tau segment 246 to 378 with the P301S mutation, linker …, mClover3) (UniProt P10636); test: cell-based or functional assay
Sequence of tau RD(P301S)-mClover3 fusion (tau segment 246 to 378 with the P301S mutation, linker …, mClover3) (P10636 other isoform, or with tags, fused parts or gaps P301S P301S P301S P301S): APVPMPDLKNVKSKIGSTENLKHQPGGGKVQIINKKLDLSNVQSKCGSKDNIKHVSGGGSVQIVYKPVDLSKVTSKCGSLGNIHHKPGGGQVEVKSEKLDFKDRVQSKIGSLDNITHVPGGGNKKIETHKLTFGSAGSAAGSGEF

Sequence of tau RD(P301S)-mCerulean3 fusion (tau segment 246 to 378 with the P301S mutation, linker …, mCerulean3) (P10636 other isoform, or with tags, fused parts or gaps P301S P301S P301S P301S): as above

- seeding activity (FRET positivity) after TauA immunopurification of fibrils spiked into 1 ml control CSF [1]: 100 attomolar
- seeding activity (FRET positivity) after TauA immunopurification of fibrils spiked into 1 ml control CSF [2]: 100 attomolar
Substance: recombinant tau fibrils made of wild-type full-length (2N4R) tau (from UniProt P10636 2-441)
